Measurements as given in patent US20220153832A1 (PIONYR IMMUNOTHERAPEUTICS, published 2022).

Key:
[1] = molecular target: T1, Human Macrophage Receptor with Collagenous Structure (MARCO), full length, on cells (human, UniProt Q9UEW3 1-520); experiment: flow cytometry, cells overexpressing human MARCO
T1 construct: the cell type is named under assay; also called huMARCO; HuMARCO
T1 sequence: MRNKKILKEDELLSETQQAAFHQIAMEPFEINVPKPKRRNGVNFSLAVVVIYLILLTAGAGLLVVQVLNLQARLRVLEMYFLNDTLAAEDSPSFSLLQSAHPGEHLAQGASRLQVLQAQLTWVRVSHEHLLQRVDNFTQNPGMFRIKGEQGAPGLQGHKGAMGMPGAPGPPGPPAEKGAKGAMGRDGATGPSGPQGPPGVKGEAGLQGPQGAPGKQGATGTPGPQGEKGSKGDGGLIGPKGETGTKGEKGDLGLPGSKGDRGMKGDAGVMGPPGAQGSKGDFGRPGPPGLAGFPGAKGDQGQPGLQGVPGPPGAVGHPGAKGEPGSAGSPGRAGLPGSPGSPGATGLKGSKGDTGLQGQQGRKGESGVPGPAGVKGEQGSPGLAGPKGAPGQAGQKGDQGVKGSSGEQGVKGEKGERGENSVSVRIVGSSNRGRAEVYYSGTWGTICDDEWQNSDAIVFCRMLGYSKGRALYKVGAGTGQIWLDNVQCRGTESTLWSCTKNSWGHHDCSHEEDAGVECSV

[2] = molecular target: T1, Human Macrophage Receptor with …; experiment: competition with AF488 E. coli binding to 293T cells expressing MARCO, flow cytometry
Description: Zombie NIR viability dye (BioLegend) was prepared by diluting the stock 1000-fold in D-PBS and added to the cells. The cells were incubated with the dye for 10 min at RT in the dark. The reaction was quenched by adding 1 m of 4× Staining buffer (2% FBS in DBPS containing Ca²⁺), followed by centrifugation at 400×g for 5 min at 4° C. Cells were then plated in V-shaped 96 well plates at a density of 100,000 cells. A488-fluorescently labeled bacteria (E. coli from Invitrogen) was added at 10 μg/ml with the anti-human or anti-mouse antibodies of interest for a 30 min incubation at 37 C. Plates were then washed twice followed by resuspension in 100 ul of staining buffer for acquisition on the flow cytometer (Attune NxT, Life Technologies). Flow cytometry data were analyzed using FlowJo software (version 10.6.1) and data were processed and further analyzed in Microsoft Excel and GraphPad Prism software (version 8).
The newly generated rat hybridoma anti-human MARCO antibodies were characterized as previously described. Neither antibody bound to MSR1. Binding kinetics were determined via Multi Cycle Kinetics analysis using the huMARCO antigen as previously described.

[3] = molecular target: T2, human MARCO (R&D biosystems), recombinant, coated in the LDL competition assay (human, UniProt Q9UEW3 70-520, limits assumed); experiment: LDL competition on coated human MARCO (MSD), competitor biotinylated hLDL
T2 construct: Bought protein
T2 sequence (looked up): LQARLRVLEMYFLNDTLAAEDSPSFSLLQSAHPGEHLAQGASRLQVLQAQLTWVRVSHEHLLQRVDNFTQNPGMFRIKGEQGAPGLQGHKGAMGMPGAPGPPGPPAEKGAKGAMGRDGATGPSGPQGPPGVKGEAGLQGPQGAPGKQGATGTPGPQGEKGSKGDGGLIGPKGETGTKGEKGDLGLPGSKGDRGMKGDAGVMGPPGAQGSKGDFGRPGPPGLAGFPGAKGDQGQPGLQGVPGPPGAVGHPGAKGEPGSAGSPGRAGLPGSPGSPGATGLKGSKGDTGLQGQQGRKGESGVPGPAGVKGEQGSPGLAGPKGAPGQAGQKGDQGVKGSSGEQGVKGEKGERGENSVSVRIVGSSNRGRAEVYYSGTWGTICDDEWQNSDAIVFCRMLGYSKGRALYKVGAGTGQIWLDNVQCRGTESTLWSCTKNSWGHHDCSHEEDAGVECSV
Description: A high-binding, 96-well MSD plate was coated with 4 μg/ml mouse MARCO or 4 μg/ml human MARCO (R&D biosystems). After the plate was blocked with PBST and 5% BSA for an hour, titrated anti-mouse or anti-human MARCO antibodies were added to the plate and incubated for 30 minutes. Biotinylated hLDL (860 pM or 2 μg/ml) were added to the antibody, and the antibody/LDL mixture was incubated for an hour to allow the mixture to reach binding equilibrium. The plates were washed and bound biotinylated LDL was detected with Sulfo-tagged streptavidin that generates an electrocheminlumenscent signal when read buffer is added and electricity is applied to the electrodes in the MSD plate. IC50's were calculated using a 4-parameter curve fit in GraphPad Prism software.

B1: PI-3015-AB (antibody, human IgG1, kappa)
heavy: not shown
light: DIQMTQSPSSLSASVGDRVTITCRASEGISNDLAWYQQKPGKAPKLLIYAASRLQSGVPSRFSGSGSGTDYTLTISSMQPEDFATYYCQQSYKYPLTFGQGTKLEIKRTVAAPSVFIFPPSDEQLKSGTASVVCLLNNFYPREAKVQWKVDNALQSGNSQESVTEQDSKDSTYSLSSTLTLSKADYEKHKVYACEVTHQGLSSPVTKSFNRGEC
- EC50 [1]: 0.86 nM

B2: PI-HX-3061 (antibody, rat IgG2a)
heavy: EVQLVESGGGLVQPGSSLKLSCVASKFTFSNYGMNWIRQAPKKGLEWIALIYYNSNNKYYADSVKGRFTISRDNSKNTLYLEMNSLRSEDTAMYYCAKSLTGGSDYFDSWGQGVMVTVSSAETTAPSVYPLAPGTALKSNSMVTLGCLVKGYFPEPVTVTWNSGALSSGVHTFPAVLQSGLYTLTSSVTVPSSTWPSQTVTCNVAHPASSTKVDKKIVPRNCGGDCKPCICTGSEVSSVFIFPPKPKDVLTITLTPKVTCVVVDISQDDPEVHFSWFVDDVEVHTAQTRPPEEQFNSTFRSVSELPILHQDWLNGRTFRCKVTSAAFPSPIEKTISKPEGRTQVPHVYTMSPTKEEMTQNEVSITCMVKGFYPPDIYVEWQMNGQPQENYKNTPPTMDTDGSYFLYSKLNVKKEKWQQGNTFTCSVLHEGLHNHHTEKSLSHSP
light: DVQMTQSPSYLAASPGESVSISCKASKSIGTFLAWYQEKPEKTNKLLIYSGSTLQSGTPSRFSGSGSGTDFTLTIRNLEPEDFAVYYCQQHDEYPFTFGSGTKLEIKRADAAPTVSIFPPSTEQLATGGASVVCLMNNFYPRDISVKWKIDGTERRDGVLDSVTDQDSKDSTYSMSSTLSLTKADYESHNLYTCEVVHKTSSSPVVKSFNRNEC
notes: Parental rat hybridoma, rat IgG2a; cross reactive with human and mouse MARCO
- EC50 [2]: 0.52 nM
- EC50 [3]: 8.2 nM

B3: PI-HX-3031 (antibody)
heavy: QVQLKESGPGLVQPSQTLSLTCTVSGFSLTSYHVSWVRQPPGKGLEWMGAIWTGGSIAYNSLLKSRLSISRDTSKSQVFLKMNSLQTEDTATYYCARDLSDYYSSYTSFDYWGQGVMVTVSTAETTAPSVYPLAPGTALKSNSMVTLGCLVKGYFPEPVTVTWNSGALSSGVHTFPAVLQSGLYTLTSSVTVPSSTWSSQAVTCNVAHPASSTKVDKKIVPRECNPCGCTGSEVSSVFIFPPKTKDVLTITLTPKVTCVVVDISQNDPEVRFSWFIDDVEVHTAQTHAPEKQSNSTLRSVSELPIVHRDWLNGKTFKCKVNSGAFPAPIEKSISKPEGTPRGPQVYTMAPPKEEMTQSQVSITCMVKGFYPPDIYTEWKMNGQPQENYKNTPPTMDTDGSYFLYSKLNVKKETWQQGNTFTCSVLHEGLHNHHTEKSLSHSP
light: DIQMTQSPASLSTSLGETVSIECLASEGISNDLAWYQQKSGKSPQLLIYAASRLQDGVPSRFSGSGSGTRYSLKISGMQPEDEADYFCQQSYKYPLTFGSGTKLEIKRADAAPTVSIFPPSTEQLATGGASVVCLMNNFYPRDISVKWKIDGTERRDGVLDSVTDQDSKDSTYSMSSTLSLTKADYESHNLYTCEVVHKTSSSPVVKSFNRNEC
notes: Parental rat hybridoma, rat IgG2a
- EC50 [2]: 0.18 nM

B4: PI-HX-3043 (antibody, rat IgG2a)
heavy: QVNLLQSRAALVKPGASVKLSCKASGYTFTDYYLHWVKQSHAKSLEWIGYINPNNAYTSYNEKFKSKATLTVDKSTNTAYMELSRLTSADSATYYCARDTTDYYNLHFAYWGQGTLVTVSSAETTAPSVYPLAPGTALKSNSMVTLGCLVKGYFPEPVTVTWNSGALSSGVHTFPAVLQSGLYTLTSSVTVPSSTWSSQAVTCNVAHPASSTKVDKKIVPRECNPCGCTGSEVSSVFIFPPKTKDVLTITLTPKVTCVVVDISQNDPEVRFSWFIDDVEVHTAQTHAPEKQSNSTLRSVSELPIVHRDWLNGKTFKCKVNSGAFPAPIEKSISKPEGTPRGPQVYTMAPPKEEMTQSQVSITCMVKGFYPPDIYTEWKMNGQPQENYKNTPPTMDTDGSYFLYSKLNVKKETWQQGNTFTCSVLHEGLHNHHTEKSLSHSP
light: DIQMTQSPASLSASLGETVSIECLTSEGISNDLAWYQQKSGKSPQLLIYDASRLEDGVPSRFSGSGSGTRYSLKISGMQTEDEADYFCQQSYKYPLTFGSGTKLEIKRADAAPTVSIFPPSTEQLATGGASVVCLMNNFYPRDISVKWKIDGTERRDGVLDSVTDQDSKDSTYSMSSTLSLTKADYESHNLYTCEVVHKTSSSPVVKSFNRNEC
notes: as for B3
- EC50 [3]: 3.4 nM

B5: PI-3010-AB (antibody, human IgG1, kappa)
heavy: not shown
light: DIQMTQSPASLSTSLGETVSIECLASEGISNDLAWYQQKSGKSPQLLIYAASRLQDGVPSRFSGSGSGTRYSLKISGMQPEDEADYFCQQSYKYPLTFGSGTKLEIKRTVAAPSVFIFPPSDEQLKSGTASVVCLLNNFYPREAKVQWKVDNALQSGNSQESVTEQDSKDSTYSLSSTLTLSKADYEKHKVYACEVTHQGLSSPVTKSFNRGEC
- EC50 [1]: 0.68 nM
